Experimental data as given in patent US20250230251A1 (Bristol-Myers Squibb, published 2025).
Residue numbers refer to the chain shown, from its start.

How the values were obtained:
huIL-18Rβ-HisAvi [1] = molecular target: T1, huIL-18Rβ-HisAvi (human, UniProt O95256 20-356, biotinylated in the Octet blocking assay); assay: SPR T200, mAb on anti-hFc, 37C, pH 6
T1 construct: Soluble analyte in all SPR runs; captured on streptavidin sensors in the Octet assay; also called human IL-18Rβ; human IL-18Rβ-Avi-His
T1 sequence: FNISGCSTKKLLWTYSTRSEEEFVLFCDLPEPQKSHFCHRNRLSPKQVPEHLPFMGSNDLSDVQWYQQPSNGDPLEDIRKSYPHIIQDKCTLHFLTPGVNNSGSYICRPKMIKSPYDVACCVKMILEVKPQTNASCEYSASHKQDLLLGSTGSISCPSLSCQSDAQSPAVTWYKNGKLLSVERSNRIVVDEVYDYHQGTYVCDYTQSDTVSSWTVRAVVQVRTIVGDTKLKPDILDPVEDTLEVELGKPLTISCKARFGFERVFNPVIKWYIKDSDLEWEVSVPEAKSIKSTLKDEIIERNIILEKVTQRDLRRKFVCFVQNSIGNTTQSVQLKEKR

cyIL-18Rβ-HisAvi [2] = molecular target: T2, cyIL-18Rβ-HisAvi (cynomolgus monkey); assay: SPR T200, mAb on anti-hFc, 37C, pH 6
T2 construct: Soluble analyte in SPR; also called cyno IL-18Rβ; cynomolgus monkey IL-18Rβ
T2 chain: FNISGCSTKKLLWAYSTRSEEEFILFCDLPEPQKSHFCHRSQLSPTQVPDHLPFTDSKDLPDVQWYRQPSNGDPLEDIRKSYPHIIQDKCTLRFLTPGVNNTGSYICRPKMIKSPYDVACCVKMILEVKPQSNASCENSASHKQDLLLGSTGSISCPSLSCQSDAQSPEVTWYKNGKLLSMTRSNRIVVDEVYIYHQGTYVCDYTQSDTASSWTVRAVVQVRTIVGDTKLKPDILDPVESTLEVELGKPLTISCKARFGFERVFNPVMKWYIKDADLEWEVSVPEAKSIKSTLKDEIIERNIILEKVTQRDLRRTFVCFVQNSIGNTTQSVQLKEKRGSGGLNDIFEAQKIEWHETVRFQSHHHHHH

huIL-18Rβ-HisAvi [3] = molecular target: T1, huIL-18Rβ-HisAvi; assay: SPR T200, mAb on anti-hFc, 37C, pH 7.4
cyIL-18Rβ-HisAvi [4] = molecular target: T2, cyIL-18Rβ-HisAvi; assay: SPR T200, mAb on anti-hFc, 37C, pH 7.4
human IL-18Rβ on cells [5] = molecular target: T3, human IL-18Rβ on cells (human, UniProt O95256 20-599); assay: cell-based or functional assay
T3 sequence: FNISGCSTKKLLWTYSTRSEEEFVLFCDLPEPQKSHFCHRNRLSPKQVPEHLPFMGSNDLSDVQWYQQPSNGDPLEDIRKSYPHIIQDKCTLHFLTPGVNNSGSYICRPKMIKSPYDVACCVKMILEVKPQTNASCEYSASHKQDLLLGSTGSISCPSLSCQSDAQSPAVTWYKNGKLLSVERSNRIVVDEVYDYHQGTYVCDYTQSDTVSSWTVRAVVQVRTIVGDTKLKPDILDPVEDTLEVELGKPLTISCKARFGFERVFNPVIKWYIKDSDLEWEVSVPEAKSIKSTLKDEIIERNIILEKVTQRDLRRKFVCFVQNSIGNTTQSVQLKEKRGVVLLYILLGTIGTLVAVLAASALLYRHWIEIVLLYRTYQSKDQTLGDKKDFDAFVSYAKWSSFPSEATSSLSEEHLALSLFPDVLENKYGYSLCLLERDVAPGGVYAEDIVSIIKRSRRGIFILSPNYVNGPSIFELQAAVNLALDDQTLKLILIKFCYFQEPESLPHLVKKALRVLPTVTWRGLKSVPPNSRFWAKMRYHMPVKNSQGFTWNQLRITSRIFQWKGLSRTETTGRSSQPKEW

human IL-18Rβ on cells [6] = molecular target: T3, human IL-18Rβ on cells; assay: cell-based or functional assay; remark: listed apart in the source
huIL-18Rβ-HisAvi [7] = molecular target: T1, huIL-18Rβ-HisAvi; assay: SPR T200, mAb on anti-hFc, 37C, pH 6; remark: listed apart in the source
cyIL-18Rβ-HisAvi [8] = molecular target: T2, cyIL-18Rβ-HisAvi; assay: SPR T200, mAb on anti-hFc, 37C, pH 6
huIL-18Rβ-HisAvi [9] = molecular target: T1, huIL-18Rβ-HisAvi; assay: SPR T200, mAb on anti-hFc, 37C, pH 7.4; remark: listed apart in the source
huIL-18Rβ-HisAvi [10] = molecular target: T1, huIL-18Rβ-HisAvi; assay: SPR T200, mAb on anti-hFc, 37C, pH 7.4; remark: listed apart in the source
cyIL-18Rβ-HisAvi [11] = molecular target: T2, cyIL-18Rβ-HisAvi; assay: SPR T200, mAb on anti-hFc, 37C, pH 7.4
huIL-18Rβ-HisAvi [12] = molecular target: T1, huIL-18Rβ-HisAvi; assay: SPR T200, pH 7.4; sample stored at pH 6, T0
huIL-18Rβ-HisAvi [13] = molecular target: T1, huIL-18Rβ-HisAvi; assay: SPR T200, pH 7.4; sample stored at pH 8, 4 w 4C
huIL-18Rβ-HisAvi [14] = molecular target: T1, huIL-18Rβ-HisAvi; assay: SPR T200, pH 7.4; sample stored at pH 8, 4 w 40C

B1: P20-V1 (antibody, human IgG1, kappa, V domains shown)
VH: QVQLQESGPGLVKPSETLSLTCTVSGGSINNYYWSWIRQPPGKGLEWIGYIFYSGTTNYNPSLKSRVTISVDTSKNQFSLKLSSVTAADTAVYYCARDVGIAARNSYYYVMDVWGQGTTVTVSS
VL: AIQLTQSPSSLSASVGDRVTITCRASQGISSALAWYQQKPGKAPKFLIYEASSLESGVPSRFSGSGSGTDFTLTISSLQPEDFATYYCQQFNSYPITFGQGTRLEIKR
notes: Variant of P20
In the case of B1, the Kd (huIL-18Rβ-HisAvi [1]) is reported as 0.45 nM, the koff (huIL-18Rβ-HisAvi [1]) is reported as 0.00015 s⁻¹ and the kon (huIL-18Rβ-HisAvi [1]) is reported as 340000 M⁻¹ s⁻¹. It also gave a Kd (cyIL-18Rβ-HisAvi [2]) of 1.7 nM, a koff (cyIL-18Rβ-HisAvi [2]) of 0.00028 s⁻¹ and a kon (cyIL-18Rβ-HisAvi [2]) of 160000 M⁻¹ s⁻¹. It also gave a Kd (huIL-18Rβ-HisAvi [3]) of 0.43 nM, a koff (huIL-18Rβ-HisAvi [3]) of 0.00015 s⁻¹ and a kon (huIL-18Rβ-HisAvi [3]) of 340000 M⁻¹ s⁻¹. It also gave a Kd (cyIL-18Rβ-HisAvi [4]) of 1.4 nM, a koff (cyIL-18Rβ-HisAvi [4]) of 0.00028 s⁻¹ and a kon (cyIL-18Rβ-HisAvi [4]) of 200000 M⁻¹ s⁻¹.

B2: P21 (antibody, human IgG1, kappa, V domains shown)
VH: QVQLQQSGPGLVKPSETLSLTCTVSGGSISNYYWTWIRQPPGKGLEWIGYISDSGSTNYNPSLKSRVTISVDTSKNQFSLKLSSVTAADTAVYYCARETIVVRGFYFYVMDVWGQGTTVTVSS
VL: B1 VL with K39R, F46L, E50D, S53N, L54W, I96W, R103K, L104V
notes: Human IgG
B2 was tested, and the “IC50, IL-18-induced IFNγ release, KG-1 cells” value (human IL-18Rβ on cells [5]) was 0.7 nM, the “IC50, LPS+IL-12 dependent IFNg production, human whole blood” value (human IL-18Rβ on cells [6]) was 1.34 nM and the Kd (huIL-18Rβ-HisAvi [7]) was 0.65 nM. For the same binder, the koff (huIL-18Rβ-HisAvi [7]) was 0.00031 s⁻¹, the kon (huIL-18Rβ-HisAvi [7]) was 480000 M⁻¹ s⁻¹ and the Kd (cyIL-18Rβ-HisAvi [8]) was 11 nM. It also gave a koff (cyIL-18Rβ-HisAvi [8]) of 0.002 s⁻¹, a kon (cyIL-18Rβ-HisAvi [8]) of 180000 M⁻¹ s⁻¹ and a Kd (huIL-18Rβ-HisAvi [1]) of 0.65 nM. It also gave a koff (huIL-18Rβ-HisAvi [1]) of 0.00031 s⁻¹, a kon (huIL-18Rβ-HisAvi [1]) of 480000 M⁻¹ s⁻¹ and a Kd (cyIL-18Rβ-HisAvi [2]) of 11 nM. For the same binder, the koff (cyIL-18Rβ-HisAvi [2]) was 0.002 s⁻¹, the kon (cyIL-18Rβ-HisAvi [2]) was 180000 M⁻¹ s⁻¹ and the Kd (huIL-18Rβ-HisAvi [9]) was 2.3 nM. The koff (huIL-18Rβ-HisAvi [9]) was 0.0005 s⁻¹, the kon (huIL-18Rβ-HisAvi [9]) was 220000 M⁻¹ s⁻¹ and the Kd (huIL-18Rβ-HisAvi [10]) was 1.8 nM. The koff (huIL-18Rβ-HisAvi [10]) was 0.00043 s⁻¹, the kon (huIL-18Rβ-HisAvi [10]) was 240000 M⁻¹ s⁻¹ and the Kd (cyIL-18Rβ-HisAvi [11]) was 19 nM. It also gave a koff (cyIL-18Rβ-HisAvi [11]) of 0.0029 s⁻¹, a kon (cyIL-18Rβ-HisAvi [11]) of 150000 M⁻¹ s⁻¹ and a Kd (huIL-18Rβ-HisAvi [3]) of 1.8 nM. It also gave a koff (huIL-18Rβ-HisAvi [3]) of 0.00043 s⁻¹, a kon (huIL-18Rβ-HisAvi [3]) of 240000 M⁻¹ s⁻¹ and a Kd (cyIL-18Rβ-HisAvi [4]) of 19 nM. The koff (cyIL-18Rβ-HisAvi [4]) was 0.0029 s⁻¹, the kon (cyIL-18Rβ-HisAvi [4]) was 150000 M⁻¹ s⁻¹ and the Kd (huIL-18Rβ-HisAvi [12]) was 1.6 nM. It also gave a koff (huIL-18Rβ-HisAvi [12]) of 0.00038 s⁻¹, a kon (huIL-18Rβ-HisAvi [12]) of 240000 M⁻¹ s⁻¹ and a Kd (huIL-18Rβ-HisAvi [13]) of 1.3 nM. It also gave a koff (huIL-18Rβ-HisAvi [13]) of 0.00034 s⁻¹, a kon (huIL-18Rβ-HisAvi [13]) of 270000 M⁻¹ s⁻¹ and a Kd (huIL-18Rβ-HisAvi [14]) of 1.9 nM. The koff (huIL-18Rβ-HisAvi [14]) was 0.0005 s⁻¹ and the kon (huIL-18Rβ-HisAvi [14]) was 260000 M⁻¹ s⁻¹.
